Data set [1] concerns the target T1, Methoprene-tolerant (Met) protein, AaMet (Aedes aegypti, UniProt Q58FS0).
T1 sequence (Q58FS0 1-597): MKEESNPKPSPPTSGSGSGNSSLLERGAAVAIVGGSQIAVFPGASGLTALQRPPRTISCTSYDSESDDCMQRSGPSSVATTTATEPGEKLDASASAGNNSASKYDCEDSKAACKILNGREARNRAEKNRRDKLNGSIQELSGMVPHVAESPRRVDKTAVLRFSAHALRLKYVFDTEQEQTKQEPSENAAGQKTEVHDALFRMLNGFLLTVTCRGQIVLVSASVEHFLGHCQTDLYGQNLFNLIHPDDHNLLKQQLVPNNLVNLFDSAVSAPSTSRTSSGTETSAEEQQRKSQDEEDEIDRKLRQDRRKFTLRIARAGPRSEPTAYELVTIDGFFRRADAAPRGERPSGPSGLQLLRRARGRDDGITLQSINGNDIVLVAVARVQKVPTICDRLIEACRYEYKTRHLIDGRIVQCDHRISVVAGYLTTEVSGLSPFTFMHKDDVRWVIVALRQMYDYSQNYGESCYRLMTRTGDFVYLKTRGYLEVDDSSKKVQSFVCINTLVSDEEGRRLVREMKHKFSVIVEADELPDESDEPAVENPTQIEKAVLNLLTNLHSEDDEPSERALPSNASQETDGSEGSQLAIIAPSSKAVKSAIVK
Description: [3H]-JH-III dextran-coated charcoal radioligand binding, Scatchard.

Data set [2] addresses bHLH-PAS domain of AaMet fused to the GAL4 DNA-binding domain (Aedes aegypti) (UniProt Q58FS0). The experiment in a line: two-hybrid.
In a further data set the target is T2, GST-AaMet (bHLH-PAS) (Aedes aegypti, UniProt Q58FS0 1-597).
T2 sequence: T1 sequence (Q58FS0 1-597)
The experiment in a line: EMSA. (In general: A gel shift assay detects complexes by their altered migration in electrophoresis.)

On to `COC(=O)/C=C(\C)CC/C=C(\C)CC[C@H]1OC1(C)C` [JH-III], for which the Kd (in general, the free concentration of one partner at which half of the binding sites on the other are occupied at equilibrium, for simple one-to-one binding) in data set [1] was determined as 4.4 ± 1.9 nM. Regarding “bHLH-PAS domain of AaFISC fused to the activation domain of GAL4 (domain or fragment)”, the fold enhancement of two-hybrid reporter activation with JH-III in data set [2] is above 20 fold.

B1: AaET_JHRE1 (dsDNA)
DNA 1: CCATCCCACACGCGAAGACGATAAAACCA
DNA 2: TGGTTTTATCGTCTTCGCGTGTGGGATGG
With B1, the binding result in the data set with GST-AaMet (bHLH-PAS) is on record as “no binding”.
